# Experimental data published in patent US20130052176, “APTAMER FOR NGF AND USE THEREOF” (SHIONOGI & CO., LTD, published 2013).
# T1: BDNF (human, UniProt P23560 P23560:129-247)
# T1 sequence: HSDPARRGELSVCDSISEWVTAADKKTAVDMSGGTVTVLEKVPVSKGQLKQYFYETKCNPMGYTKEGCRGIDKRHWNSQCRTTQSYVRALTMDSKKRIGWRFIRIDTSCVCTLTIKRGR
# T2: NT-4/5 (human, UniProt P34130 P34130:81-210)
# T2 sequence: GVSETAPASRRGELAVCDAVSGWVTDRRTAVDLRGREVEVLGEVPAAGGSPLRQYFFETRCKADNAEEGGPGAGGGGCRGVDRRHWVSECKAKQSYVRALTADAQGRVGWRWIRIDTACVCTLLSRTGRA
# Assays:
# [1] = biological target: T3, NGF (nerve growth factor) (human, UniProt P01138 P01138:122-241); assay: cell_activity; neurite outgrowth, NGF 1.1 nM; TF-1 IC50 1.2 nM; conditions: tags: human NGF; chain copies: 2
# Experimental: (§1) The neurite outgrowth inhibitory activity of the aptamer obtained in Example 1 was evaluated by using Neuroscreen-1 cell, which is a subclone of PC-12 cells.
# (§2) The cells (2500 cells per well) were cultured for one day in an RPMI-1640 medium containing 2.5% horse serum and 1.25% fetal bovine serum in a 96 well flat-bottom plate coated with collagen type IV. […] Two days later, the cytoplasm and nuclei were stained using Cellomics Neurite Outgrowth Kit (manufactured by Thermo Scientific), and neurite length per cell was measured by Cellomics ArrayScan VTI (manufactured by Thermo Scientific). With the neurite length per cell obtained by the addition of NGF alone as inhibitory activity 0%, and that of the cell obtained by NGF free culture for 2 days as inhibitory activity 100%, the inhibitory activity of the aptamer was calculated from the neurite length per cell obtained by culturing with the addition of NGF and the aptamer in mixture. When the inhibitory activity was 0% or below, ‘0%’ is indicated.
# [2] = biological target: T3, NGF (nerve growth factor); assay: cell_activity; neurite outgrowth, NGF 1.1 nM; TF-1 IC50 4.2 nM; conditions: tags: human NGF; chain copies: 2
# Experimental: as §1, §2
# [3] = biological target: T3, NGF (nerve growth factor); assay: cell_activity; neurite outgrowth, NGF 1.1 nM; TF-1 IC50 1.5 nM; conditions: tags: human NGF; chain copies: 2
# Experimental: as §1, §2
# [4] = biological target: T3, NGF (nerve growth factor); assay: cell_activity; neurite outgrowth, NGF 1.1 nM; TF-1 IC50 1.7 nM; conditions: tags: human NGF; chain copies: 2
# Experimental: as §1, §2
# [5] = biological target: T3, NGF (nerve growth factor); assay: cell_activity; neurite outgrowth, NGF 1.1 nM; TF-1 IC50 7.0 nM; conditions: tags: human NGF; chain copies: 2
# Experimental: as §1, §2
# [6] = biological target: T3, NGF (nerve growth factor); assay: cell_activity; neurite outgrowth, NGF 0.38 nM; TF-1 IC50 0.064 nM; conditions: tags: human NGF; chain copies: 2
# Experimental: as §1, §2
# [7] = biological target: T3, NGF (nerve growth factor); assay: cell_activity; neurite outgrowth, NGF 0.38 nM; TF-1 IC50 0.131 nM; conditions: tags: human NGF; chain copies: 2
# Experimental: as §1, §2
# [8] = biological target: T3, NGF (nerve growth factor); assay: cell_activity; neurite outgrowth, NGF 0.38 nM; TF-1 IC50 0.177 nM; conditions: tags: human NGF; chain copies: 2
# Experimental: as §1, §2
# [9] = biological target: T3, NGF (nerve growth factor); assay: cell_activity; neurite outgrowth, NGF 0.38 nM; TF-1 IC50 0.159 nM; conditions: tags: human NGF; chain copies: 2
# Experimental: as §1, §2
# [10] = biological target: T3, NGF (nerve growth factor); assay: cell_activity; neurite outgrowth, NGF 0.38 nM; TF-1 IC50 0.156 nM; conditions: tags: human NGF; chain copies: 2
# Experimental: as §1, §2
# [11] = biological target: T3, NGF (nerve growth factor); assay: cell_activity; neurite outgrowth, NGF 0.38 nM; TF-1 IC50 0.184 nM; conditions: tags: human NGF; chain copies: 2
# Experimental: as §1, §2
# [12] = biological target: T3, NGF (nerve growth factor); assay: cell_activity; neurite outgrowth, NGF 0.38 nM; TF-1 IC50 0.203 nM; conditions: tags: human NGF; chain copies: 2
# Experimental: as §1, §2
# [13] = biological target: T3, NGF (nerve growth factor); assay: cell_activity; neurite outgrowth, NGF 0.38 nM; TF-1 IC50 0.285 nM; conditions: tags: human NGF; chain copies: 2
# Experimental: as §1, §2
# BDNF = biological target: T1, BDNF; assay: cell_activity; TF-1 TrkB/p75 proliferation; SPR showed very fast dissociation; conditions: tags: R&D Systems; chain copies: 2
# Experimental: (§3) The physiological inhibitory activity of the aptamers represented by aptamer IDs: 26(2), 52, 63-65 against BDNF, NT-3, NT-4/5 was evaluated by a growth inhibition assay using TF-1 cells.
# (§4) Human receptor genes (TrkB, TrkC, p75) for respective neurotrophic factors were introduced into TF-1 cells (ATCC Number:CRL-2003), which is a human erythroleukemic cell line, by using a retrovirus vector to give cells that highly express these receptors stably. TF-1 cells introduced with TrkB and p75 were used for the evaluation of inhibitory activity against BDNF, TF-1 cells introduced with TrkC and p75 were used for the evaluation against NT-3, and TF-1 cells introduced with TrkB alone were used for the evaluation against NT-4/5. These cells were suspended in an RPMI-1640 medium containing 20% fetal bovine serum, and seeded in a white 96 well flat-bottom plate at 1000 cells (50 μL) per well. […] With the amount of luminescence per well obtained by the addition of BDNF or NT-3 or NT-4/5 alone and culture of the cells for 3 days as inhibitory activity 0%, and that of the cell obtained by culture for 3 days without addition of BDNF or NT3 or NT-4/5 as inhibitory activity 100%, the inhibitory activity of the aptamer was calculated from the amount of luminescence per well obtained by culturing with the addition of BDNF or NT3 or NT-4/5 and the aptamer in mixture. […]
# NT-4/5 = biological target: T2, NT-4/5; assay: cell_activity; TF-1 TrkB proliferation; SPR showed very fast dissociation; conditions: tags: R&D Systems; chain copies: 2
# Experimental: as §3, §4
# [14] = biological target: T3, NGF (nerve growth factor); assay: cell_activity; neurite outgrowth, NGF 0.38 nM; TF-1 IC50 0.158 nM; conditions: tags: human NGF; chain copies: 2
# Experimental: as §1, §2
# [15] = biological target: T3, NGF (nerve growth factor); assay: cell_activity; neurite outgrowth, NGF 0.38 nM; TF-1 IC50 0.319 nM; conditions: tags: human NGF; chain copies: 2
# Experimental: as §1, §2
# T3 sequence (P01138 122-241, one chain of several): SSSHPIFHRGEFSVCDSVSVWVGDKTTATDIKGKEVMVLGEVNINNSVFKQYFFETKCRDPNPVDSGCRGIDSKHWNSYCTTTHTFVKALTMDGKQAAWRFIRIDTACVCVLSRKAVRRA
binder,measurement,setting,value
"GGGAUAAAAAUAGAGTUUGATAAACACCUGUAUUAAAACCC (mixed, as ID 57 (5' cholesterol; 3' idT; dT16,dT21; 2'-F other pyrimidines and a37,a38; 2'-OMe purines except ribo a4,a7,g30) plus PS between 15 and 16) [aptamer ID 57(1)]",IC50,[1],< 3 nM
"GGGAUAAAAAUAGAGTUUGATAAACACCUGUAUUAAAACCC (mixed, as ID 57 (5' cholesterol; 3' idT; dT16,dT21; 2'-F other pyrimidines and a37,a38; 2'-OMe purines except ribo a4,a7,g30) plus PS between 20 and 21) [aptamer ID 57(4)]",IC50,[2],< 3 nM
"GGGAUAAAAAUAGAGTUUGATAAACACCUGUAUUAAAACCC (mixed, as ID 57 (5' cholesterol; 3' idT; dT16,dT21; 2'-F other pyrimidines and a37,a38; 2'-OMe purines except ribo a4,a7,g30) plus PS between 19 and 20) [aptamer ID 57(3)]",IC50,[3],< 3 nM
"GGGAUAAAAAUAGAGTUUGATAAACACCUGUAUUAAAACCC (mixed, as ID 57 (5' cholesterol; 3' idT; dT16,dT21; 2'-F other pyrimidines and a37,a38; 2'-OMe purines except ribo a4,a7,g30) plus PS between 21 and 22) [aptamer ID 57(5)]",IC50,[4],< 3 nM
"GGGAUAAAAAUAGAGTUUGATAAACACCUGUAUUAAAACCC (mixed, as ID 57 (5' cholesterol; 3' idT; dT16,dT21; 2'-F other pyrimidines and a37,a38; 2'-OMe purines except ribo a4,a7,g30) plus PS between 29 and 30) [aptamer ID 57(9)]",IC50,[5],< 3 nM
"GGGAGACUCGCCAGAGUUGAAAGAAACCCAAAUAAGUGUGCGCAC (mixed, 5' PEG80TS4 via ssH linker; 3' idT; 2'-OMe purines except ribo g3,g19,a20,a26; 2'-F c28,c41,c43; dC27,dC29; other pyrimidines 2'-OMe) [aptamer ID 26(65)]",IC50,[6],0.091 nM
"GGGAGACUCGCCAGAGUUGAAAGAAACCCAAAUAAGUGUGCGCAC (mixed, as 26(19) (5' and 3' idT; 2'-F pyrimidines; 2'-OMe purines except ribo g3,g19,a20,a26) but u37 is dT) [aptamer ID 26(29)]",IC50,[7],0.138 nM
"GGGAGACUCGCCAGAGUUGAAAGAAACCCAAAUAAGUGUGCGCAC (mixed, as 26(19) (5' and 3' idT; 2'-F pyrimidines; 2'-OMe purines except ribo g3,g19,a20,a26) but u17 is dT) [aptamer ID 26(26)]",IC50,[8],0.285 nM
"GGGAGACUCGCCAGAGUUGAAAGAAACCCAAAUAAGUGUGCGCAC (mixed, as 26(19) (5' and 3' idT; 2'-F pyrimidines; 2'-OMe purines except ribo g3,g19,a20,a26) but c9 is dC) [aptamer ID 26(23)]",IC50,[9],0.229 nM
"GGGAGACUCGCCAGAGUUGAAAGAAACCCAAAUAAGUGUGCGCAC (mixed, as 26(19) (5' and 3' idT; 2'-F pyrimidines; 2'-OMe purines except ribo g3,g19,a20,a26) but c11 is dC) [aptamer ID 26(24)]",IC50,[10],0.226 nM
"GGGAGACUCGCCAGAGUUGAAAGAAACCCAAAUAAGUGUGCGCAC (mixed, as 26(19) (5' and 3' idT; 2'-F pyrimidines; 2'-OMe purines except ribo g3,g19,a20,a26) but u33 is dT) [aptamer ID 26(28)]",IC50,[11],0.2 nM
"GGGAGACUCGCCAGAGUUGAAAGAAACCCAAAUAAGUGUGCGCAC (mixed, as 26(19) (5' and 3' idT; 2'-F pyrimidines; 2'-OMe purines except ribo g3,g19,a20,a26) but c12 is dC) [aptamer ID 26(25)]",IC50,[12],0.29 nM
"GGGAGACUCGCCAGAGUUGAAAGAAACCCAAAUAAGUGUGCGCAC (ssRNA, 5' PEG40TS2 via ssH linker; 3' idT; 2'-F all pyrimidines; 2'-OMe purines except ribo g3,g19,a20,a26) [aptamer ID 26(67)]",IC50,[13],0.153 nM
"GGGAGACUCGCCAGAGUUGAAAGAAACCCAAAUAAGUGUGCGCAC (ssRNA, 5' and 3' idT; 2'-F all pyrimidines; 2'-OMe purines except ribo g3,g5,g19,a20,a21,a22,a24,a26) [aptamer ID 26(2)]",IC50,BDNF,> 1000 nM
same,IC50,NT-4/5,> 300 nM
"GGGAGACUCGCCAGAGUUGAAAGAAACCCAAAUAAGUGUGCGCAC (mixed, as 26(19) (5' and 3' idT; 2'-F pyrimidines; 2'-OMe purines except ribo g3,g19,a20,a26) but c29 is dC) [aptamer ID 26(27)]",IC50,[14],0.15 nM
"GGGAGACUCGCCAGAGUUGAAAGAAACCCAAAUAAGUGUGCGCAC (ssRNA, 5' PEG80TS4 via ssH linker; 3' idT; 2'-F all pyrimidines; 2'-OMe purines except ribo g3,g19,a20,a26) [aptamer ID 26(70)]",IC50,[15],0.126 nM
